This is an account of results in paper PMC9940631 (Molecular Cancer Therapeutics, 2022).

The conditions of series [1]: terminal plasma half-life; ref EV multi-disciplinary review and evaluation; cited from earlier work.
For series [2] the following is noted: In ICR SCID mouse; ref Enfortumab vedotin data from literature; cited from earlier work.
The conditions of series [3]: terminal plasma half-life; ref EV multi-disciplinary review and evaluation; cited from earlier work. This is another data set of the same source.
In series [4] the test system is head and neck PDX (HN-13–001). In words: Head and neck PDX model. The format is in vivo, mouse. The settings on record: dosed initially at 5 mg/kg (D0, D7) and subsequently 10 mg/kg (D14).
Series [5] concerns the target T1, endogenous Nectin-4 expressed on the cell membrane of MDA-MB-468 cells (Homo sapiens, UniProt Q96NY8).
T1 sequence (Q96NY8 32-510): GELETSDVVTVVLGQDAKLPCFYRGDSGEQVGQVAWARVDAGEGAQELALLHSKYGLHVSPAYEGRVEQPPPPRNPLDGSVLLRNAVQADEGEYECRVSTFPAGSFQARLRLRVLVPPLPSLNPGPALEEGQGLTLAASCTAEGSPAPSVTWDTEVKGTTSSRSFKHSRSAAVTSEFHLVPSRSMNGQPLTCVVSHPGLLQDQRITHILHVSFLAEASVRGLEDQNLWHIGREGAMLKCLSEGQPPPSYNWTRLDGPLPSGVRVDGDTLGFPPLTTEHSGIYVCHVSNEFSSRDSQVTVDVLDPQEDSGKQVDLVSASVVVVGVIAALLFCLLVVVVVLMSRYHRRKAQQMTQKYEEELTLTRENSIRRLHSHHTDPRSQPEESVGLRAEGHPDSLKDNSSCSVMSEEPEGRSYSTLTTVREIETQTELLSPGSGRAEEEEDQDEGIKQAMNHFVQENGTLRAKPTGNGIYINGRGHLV
The series is described as follows: High content imaging of binding to live MDA-MB-468 cells. The following applies: anti-MMAE antibody detection.

The target of another series is Nectin-4. In words: SPR of Nectin-4 ADC. The class given is binding. The settings on record: read-out: KD for Nectin-4, chip coated with ADC, protein passed over it.
The test system of a further series is LU-01–0412 PDX. The series is described as follows: LU-01–0412 lung PDX model. The format is in vivo, mouse. The following applies: PDX NSCLC, Fig. 6D; rate and degree of regression comparable.
In series [6] the test system is NCI-H292, MDA-MB-468, and NCI-H322 CDX tumors. The series is described as follows: Tumor MMAE accumulation after BT8009 in CDX models. The class given is in vivo, mouse. The settings on record: after administration of BT8009, three CDX models, n = 3 per timepoint, LC/MS-MS.
The target in series [7] is endogenous Nectin-4 expressed on the cell membrane of MDA-MB-468 cells (human (endogenous in MDA-MB-468)) (UniProt Q96NY8). The series is described as follows: high content imaging of binding to live cells.
For the next series, the target named is hNecl3 (human) (UniProt Q8N3J6). The series is described as follows: SPR. (In general: Surface plasmon resonance follows binding to a sensor surface in real time, without labels.)
Sequence of hNecl3 (human) (Q8N3J6 25-435): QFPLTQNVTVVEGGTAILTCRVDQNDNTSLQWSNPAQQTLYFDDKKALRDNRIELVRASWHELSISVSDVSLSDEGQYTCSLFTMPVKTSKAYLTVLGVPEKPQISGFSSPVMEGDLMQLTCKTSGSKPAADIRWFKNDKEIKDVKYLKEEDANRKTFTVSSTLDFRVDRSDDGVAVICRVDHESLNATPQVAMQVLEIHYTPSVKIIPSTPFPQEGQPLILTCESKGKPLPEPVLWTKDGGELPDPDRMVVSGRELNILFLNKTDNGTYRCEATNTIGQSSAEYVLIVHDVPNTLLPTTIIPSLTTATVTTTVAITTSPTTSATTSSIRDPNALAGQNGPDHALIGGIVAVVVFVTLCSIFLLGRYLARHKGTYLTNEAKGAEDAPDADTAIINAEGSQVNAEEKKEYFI
For series [8], the target named is human Nectin-4 extra-cellular domain (human) (UniProt Q96NY8). In words: SPR.
The next series concerns the target hNecl2 (human) (UniProt Q9BY67). The series is described as follows: SPR.
Another series addresses hNectin1 (human) (UniProt Q15223). The series is described as follows: SPR.
The next series deals with hNecl5 (human) (UniProt P15151). In words: SPR.
Sequence of hNecl5 (human) (P15151 21-417): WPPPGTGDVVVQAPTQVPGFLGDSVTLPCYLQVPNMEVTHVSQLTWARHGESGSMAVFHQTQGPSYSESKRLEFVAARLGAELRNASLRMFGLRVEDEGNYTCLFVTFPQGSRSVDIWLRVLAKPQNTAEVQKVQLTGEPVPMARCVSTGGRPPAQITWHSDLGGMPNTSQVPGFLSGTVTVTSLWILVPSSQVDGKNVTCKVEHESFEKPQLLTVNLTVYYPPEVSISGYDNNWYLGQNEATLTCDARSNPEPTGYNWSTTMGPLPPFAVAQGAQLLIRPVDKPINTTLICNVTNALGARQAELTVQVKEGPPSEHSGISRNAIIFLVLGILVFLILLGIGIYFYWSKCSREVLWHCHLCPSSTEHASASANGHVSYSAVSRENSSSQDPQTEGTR
For a further series, the target named is hNecl1 (human) (UniProt Q8N126). In words: SPR.
Sequence of hNecl1 (human) (Q8N126 25-398): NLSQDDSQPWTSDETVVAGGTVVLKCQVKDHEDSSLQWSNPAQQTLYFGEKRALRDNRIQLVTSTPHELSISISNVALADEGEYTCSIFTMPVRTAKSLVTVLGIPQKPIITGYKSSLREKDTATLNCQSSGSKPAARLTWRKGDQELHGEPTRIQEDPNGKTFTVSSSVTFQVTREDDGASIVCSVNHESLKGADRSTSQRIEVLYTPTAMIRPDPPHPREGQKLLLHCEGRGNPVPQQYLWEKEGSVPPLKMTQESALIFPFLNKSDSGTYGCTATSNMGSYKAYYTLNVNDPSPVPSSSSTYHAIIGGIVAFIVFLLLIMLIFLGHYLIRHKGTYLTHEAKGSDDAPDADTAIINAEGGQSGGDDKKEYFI
Another series has as its target hNectin2 (human) (UniProt Q92692). In words: SPR.
In the next series the target is hNectin3 (human) (UniProt Q9NQS3). The series is described as follows: SPR.
Sequence of hNectin3 (human) (Q9NQS3 58-549): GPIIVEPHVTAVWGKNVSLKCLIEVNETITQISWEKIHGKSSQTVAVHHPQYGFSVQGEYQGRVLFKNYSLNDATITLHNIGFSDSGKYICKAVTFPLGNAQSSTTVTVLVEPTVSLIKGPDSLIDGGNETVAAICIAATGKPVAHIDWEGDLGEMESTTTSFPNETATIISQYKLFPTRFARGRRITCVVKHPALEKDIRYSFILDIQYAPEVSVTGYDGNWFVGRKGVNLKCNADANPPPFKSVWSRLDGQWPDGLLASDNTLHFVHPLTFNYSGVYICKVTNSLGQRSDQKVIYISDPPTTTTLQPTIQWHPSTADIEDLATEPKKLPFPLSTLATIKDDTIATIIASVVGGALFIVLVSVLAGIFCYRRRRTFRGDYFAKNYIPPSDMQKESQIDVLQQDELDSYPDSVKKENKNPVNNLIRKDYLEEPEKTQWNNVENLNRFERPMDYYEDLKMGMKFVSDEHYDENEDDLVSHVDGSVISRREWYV
A further series concerns the target hNecl4 (human) (UniProt Q8NFZ8). In words: SPR.

Where a SMILES comes first, the peptide text is derived from it. [ ]: non-standard residue; d: D form. The star is where a group is joined. Dolaproine = CO[C@@H]([C@@H]1CCCN1)[C@@H](C)C(=O)O; Dil = CC[C@H](C)[C@H](NC)[C@@H](CC(=O)O)OC; X1 = C[C@@H](N*)[C@@H](O)c1ccccc1; NMeV = CN[C@H](C(=O)O)C(C)C

One may read the Kd as the free concentration of one partner at which half of the binding sites on the other are occupied at equilibrium, for simple one-to-one binding.

Sequence of hNecl2 (human) (Q9BY67 45-442): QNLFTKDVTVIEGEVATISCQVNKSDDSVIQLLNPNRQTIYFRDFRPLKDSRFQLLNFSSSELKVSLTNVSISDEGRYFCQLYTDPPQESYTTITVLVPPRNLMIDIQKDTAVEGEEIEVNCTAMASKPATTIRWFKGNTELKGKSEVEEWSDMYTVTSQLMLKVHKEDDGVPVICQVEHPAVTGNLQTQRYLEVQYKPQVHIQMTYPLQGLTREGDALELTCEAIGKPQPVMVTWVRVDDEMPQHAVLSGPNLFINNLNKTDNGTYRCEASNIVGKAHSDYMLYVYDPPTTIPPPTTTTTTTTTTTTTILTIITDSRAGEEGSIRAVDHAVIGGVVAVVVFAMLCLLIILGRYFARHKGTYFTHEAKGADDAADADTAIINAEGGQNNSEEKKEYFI
Sequence of hNecl4 (human) (Q8NFZ8 21-388): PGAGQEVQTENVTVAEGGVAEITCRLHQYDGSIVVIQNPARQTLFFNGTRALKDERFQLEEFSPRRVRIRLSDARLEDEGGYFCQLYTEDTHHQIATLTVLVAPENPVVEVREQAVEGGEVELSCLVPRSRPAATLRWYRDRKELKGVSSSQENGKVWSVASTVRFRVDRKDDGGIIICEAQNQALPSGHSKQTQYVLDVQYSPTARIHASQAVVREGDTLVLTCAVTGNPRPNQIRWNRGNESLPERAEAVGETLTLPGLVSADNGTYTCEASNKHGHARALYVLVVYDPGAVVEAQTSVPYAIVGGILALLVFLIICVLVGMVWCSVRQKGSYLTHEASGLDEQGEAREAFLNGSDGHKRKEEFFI
Sequence of hNectin1 (human) (Q15223 31-517): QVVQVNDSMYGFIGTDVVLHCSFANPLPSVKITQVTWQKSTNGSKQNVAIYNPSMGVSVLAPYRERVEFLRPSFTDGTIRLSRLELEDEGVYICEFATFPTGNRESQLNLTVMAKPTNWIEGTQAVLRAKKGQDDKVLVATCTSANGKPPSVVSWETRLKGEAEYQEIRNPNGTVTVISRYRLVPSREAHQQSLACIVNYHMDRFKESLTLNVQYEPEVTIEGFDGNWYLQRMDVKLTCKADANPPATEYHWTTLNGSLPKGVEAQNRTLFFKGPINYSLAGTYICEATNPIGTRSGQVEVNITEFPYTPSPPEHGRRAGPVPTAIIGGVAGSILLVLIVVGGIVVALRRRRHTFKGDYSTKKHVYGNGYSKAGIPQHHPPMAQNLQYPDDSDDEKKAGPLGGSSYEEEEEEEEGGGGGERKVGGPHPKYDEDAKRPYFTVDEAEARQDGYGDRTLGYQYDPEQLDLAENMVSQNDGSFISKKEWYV
Sequence of hNectin2 (human) (Q92692 32-538): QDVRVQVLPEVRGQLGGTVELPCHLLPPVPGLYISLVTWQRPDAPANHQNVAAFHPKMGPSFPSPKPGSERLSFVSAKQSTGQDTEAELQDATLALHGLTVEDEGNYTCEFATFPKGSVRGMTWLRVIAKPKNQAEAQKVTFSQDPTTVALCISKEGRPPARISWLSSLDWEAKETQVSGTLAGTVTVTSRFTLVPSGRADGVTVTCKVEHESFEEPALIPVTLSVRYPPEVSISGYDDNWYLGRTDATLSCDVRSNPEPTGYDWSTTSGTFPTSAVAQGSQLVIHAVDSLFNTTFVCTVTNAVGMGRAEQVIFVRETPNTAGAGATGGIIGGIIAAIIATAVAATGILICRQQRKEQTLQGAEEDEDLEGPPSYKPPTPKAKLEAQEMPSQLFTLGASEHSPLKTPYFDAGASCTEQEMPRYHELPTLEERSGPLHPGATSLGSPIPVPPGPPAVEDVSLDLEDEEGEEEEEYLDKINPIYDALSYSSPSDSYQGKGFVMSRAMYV

For the compound enfortumab vedotin [EV], the “EV t1/2 rat” value in series [1] was 24 to 31.2 h. In addition, the “Vdss (L/kg), EV, Mouse” value in series [2] is given as 0.08 L/kg. Further, in [3], the “EV t1/2 NHP” value is 17 to 40.8 h.

Take “Nectin-4 ADC: in-house EV analog; enfortumab-sequence antibody conjugated with MC-VC-PAB MMAE, 152kDa, DAR 3.98”: the “antitumor response, ADC” value in [4] is recorded as “minimally reduced tumor growth rate”. Further, the “Bmax(RFU) on MDA-MB-468 cells” value in series [5] (45 minutes at 4°C) came out at 35.2 ± 2.2 RFU. The Kd at Nectin-4 lay in the range of 0.0012 to 0.0046 µM. Moreover, the “tumor regrowth after treatment cessation” value in the series with LU-01–0412 PDX was “tumor regrowth from drug cessation”.

Take `CC[C@H](C)[C@@H]([C@@H](CC(=O)N1CCC[C@H]1[C@H](OC)[C@@H](C)C(=O)N[C@H](C)[C@@H](O)c1ccccc1)OC)N(C)C(=O)[C@@H](NC(=O)[C@@H](NC)C(C)C)C(C)C` [MMAE, mono-methylauristatin E] (H-[NMeV]V[Dil][Dolaproine]-X1): the “time to peak tumor concentrations of total MMAE” value in series [6] was 2 to 4 h. Besides, the “affinity for the cells (in words)” value in series [5] (MDA-MB-468 cells, 4°C) was “no affinity”.

For BCY8781 (peptide), the Kd in series [7] is more than 10 µM.

Regarding BT8009 (peptide), the Kd with hNecl3 (human) was more than 20 µM; in [8], 0.0025 µM; with hNecl2 (human), more than 20 µM; with hNectin1 (human) it was more than 20 µM; with hNecl5 (human), more than 20 µM; with hNecl1 (human), more than 20 µM. In addition, the Kd was more than 20 µM with hNectin2 (human), more than 20 µM with hNectin3 (human), more than 20 µM with hNecl4 (human) and 0.0129 µM in series [7].
